From publication PMC3557383

Target: T1, RepA (ORF3) (Moraxella bovis ATCC 10900 (plasmid pMbo4.6)) (UniProt D0V0D3)
T1 sequence: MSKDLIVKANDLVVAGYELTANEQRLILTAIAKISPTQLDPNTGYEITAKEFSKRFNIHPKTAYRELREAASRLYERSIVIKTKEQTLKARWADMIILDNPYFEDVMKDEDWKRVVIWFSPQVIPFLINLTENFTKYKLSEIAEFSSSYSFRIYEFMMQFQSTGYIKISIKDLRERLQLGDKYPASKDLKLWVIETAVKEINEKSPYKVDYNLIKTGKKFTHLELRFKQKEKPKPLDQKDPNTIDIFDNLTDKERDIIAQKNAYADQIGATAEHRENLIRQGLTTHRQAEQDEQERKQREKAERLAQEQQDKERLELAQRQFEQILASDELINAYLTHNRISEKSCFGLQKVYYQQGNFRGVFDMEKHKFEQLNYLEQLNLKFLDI
Experiment: EMSA
Conditions: 10 mM Tris-HCl pH 7.5, 10 mM MgCl2, 100 mM NaCl, 0.2 mM DTT, 5% glycerol, 30 ul, 22 C 20 min; 6% PAGE 0.4x TBE at 4 C

Sequence | binding
AAGAATTCGGGCGTGGTTTTGGGGATTGATTTTGTTTTGTCTTTTTAGCTAAAAAAACAAGAAAATTAACAAGAAAAAGAGCCAAAACCGAGTGCTTTTTCGGTTTTGGCGTTTTTTTATTTTTTTAATATATTTTTAATAGTTTTTAGACCCCCTGCAAAGCCTTATGTATCAAAGGTTTGCG (double strand) [orirep32] | no binding
CTAGGAGGGATTGACTACCAAATAGGAGGGATTGACTACTCAAATAGGAGGGATTGACTACTCAAATAGGAGGGATTGACTACCAAATAGGAGTATTTACAATAACTCTTTTTAGGTGTATAATTAATTACTCCTTTTTTGCTAATGAGACCTAAAAATGAGCAAAGATTTAATTGTAGGATCCAA (double strand) [orirep15] | binds
